Source: patent US20240174754A1 (published 2024)

Tests used:
Human CD8+ T Cells [1] = assay: FACS binding to human CD8+ T cells; Donor KP63218
Human CD8+ T Cells [2] = assay: FACS binding to human CD8+ T cells; Donor KP63715

B1: PA015 (antibody, V domains shown)
VH: QVTLRESGPALVKPTQTLTLTCTVSGFSLSTFGMGVGWIRQPPGKALEWLAHIWWDDDKWYELALKSRLTISKDTSKNQVVLTITNMDPVDTATYYCARVIYYGSRSAYYSMDYWGQGTTVTVSS
VL: DVVMTQTPLSLSVTPGQPASISCKSSQSIVHSNAHTYLEWYLQKPGQSPQLLIYKVSNRFSGVPDRFSGSGSGTDFTLKISRVEAEDVGVYYCFQGSHVPVTFGQGTKLEIKR
EC50 (Human CD8+ T Cells [1]): 10.8 ng/mL | EC50 (Human CD8+ T Cells [2]): 3.18 ng/mL
